According to PMC12182893, “Dimeric DNA Aptamers for the Spike Protein of SARS‐CoV‐2 Derived from a Structured Library with Dual Random Domains”:
Like-named read-outs stand apart in the source and are kept apart here.

Assays:
[1] = target: alpha-thrombin (human, UniProt P00734;P00734 328-363;364-622); settings: protein: commercial; copies: 1;1; label: radiolabel (32P); 3-way junction, predicted
[2] = target: SARS-CoV-1 spike protein (SARS-CoV-1, UniProt P59594 14-1195); assay: dot blot (filter binding); settings: protein: recombinant; chain copies: 3; label: radiolabel (32P)
[3] = target: Influenza hemagglutinin (HA) (influenza A/California/04/2009 (CAL 09), UniProt C3W5S1 18-530); assay: dot blot (filter binding); settings: protein: recombinant; chain copies: 3; label: radiolabel (32P)
[4] = target: 229E RBD (seasonal coronavirus 229E, UniProt P15423 293-435); assay: dot blot (filter binding); 10 nM protein; settings: protein: recombinant; label: radiolabel (32P); 3-way junction, predicted
[5] = target: OC43 RBD (seasonal coronavirus OC43, UniProt P36334 333-607); assay: dot blot (filter binding); 10 nM protein; settings: protein: recombinant; label: radiolabel (32P); 3-way junction, predicted
[6] = target: NL63 RBD (seasonal coronavirus NL63, UniProt Q6Q1S2 481-616); assay: dot blot (filter binding); 10 nM protein; settings: protein: recombinant; label: radiolabel (32P); 3-way junction, predicted
[7] = target: HKU1 RBD (seasonal coronavirus HKU1, UniProt Q5MQD0 325-607); assay: dot blot (filter binding); 10 nM protein; settings: protein: recombinant; label: radiolabel (32P); 3-way junction, predicted
[8] = target: alpha-thrombin (human, UniProt P00734;P00734 328-363;364-622); assay: dot blot (filter binding)

Measured: binding result

B1: DRDA8 (structured_DNA)
DNA: TTACGTCAAGGTGTCACTCCTGTGGGTGGAATGGGGAAGGGAGTGTTTTTTTTTGTGAGATGTGTGGTGTGGAATGGGGAAGCATCTCTTTGGCGTG
no binding: [1] | [2] | [3] | [4] | [5] | [6] | [7]

B2: DRDA10 (structured_DNA)
DNA: TTACGTCAAGGTGTCACTCCTGTGGGTGGAATGGGGAAGGGAGTGTTTTTTTTTTCGGAGATGTGTGTGTGAAACAGTGGGAAGCATCTCTTTGGCGTG
no binding: [8]
